We go through two molecules from US20150307610A1 (AbbVie / Abbott, published 2015).

Assay [1] addresses T1, E. coli RAGE Construct #7, 6His-(Thr)-[RAGE (235-336)] (human).
T1 construct: N-terminal 6His-(Thr) tag is part of the entry; expressed in E. coli; also called RAGE protein #7
T1 chain: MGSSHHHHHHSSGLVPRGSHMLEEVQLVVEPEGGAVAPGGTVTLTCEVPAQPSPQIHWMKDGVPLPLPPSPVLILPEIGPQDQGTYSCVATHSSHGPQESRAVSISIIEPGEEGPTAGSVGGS
Nature of the assay: ELISA, antigen coated at 1 ug/ml. The procedure:
(§1) Antigens (purified construct #1-7 proteins) were diluted into Coating Buffer [100 mM NaHCO₃, pH 8.2] to 1 μg/ml, and 100 μl of the resulting solution was then aliquoted into a 96-well Nunc Immuno Plate (Maxi-Sorb Surface, flat bottom, catalog #439454). The plate was sealed with sealing film and incubated at 4° C. overnight. The next day, the plate wells were each washed 3 times with 150 μL PBST buffer [Sigma PBS+0.05% Tween 20]. Then 300 ul of blocking solution (3% NFDM in PBST) was added to each well. The plate was incubated for 2 hours at room temperature and shaking at 100 rpm. After the incubation step, each well was again washed three times with 150 uL PBST. 100 ul of the corresponding antibody to be tested (i.e. 7F9, 11E6, and 4E5) was added at various dilutions made in PBST/0.5% BSA. The plate was then sealed with sealing film and incubated for 2 hours at room temperature and shaking at 100 rpm. Next the antibody solution was drained out of the wells, and each well then washed three times with 200 ul PBST. To each well then 200 ul of a 1:5000 dilution (in PBST/1% NFDM) of conjugated secondary antibody [Donkey anti-mouse HRPO conjugate, Jackson Immuno Research, Catalog #715-035-150] was added. […] Finally, 50 μL of 2M H₂SO₄ was added to each well to stop the reaction and the […] of each well was measured using a microtiter plate reader.
Background: In an ELISA, binding on a coated surface is turned into a signal by an enzyme label.

Assay [2] addresses T1, E. coli RAGE Construct #7, …. Kind of assay: binding analysis of RAGE mutants of human sRAGE expressed in E. coli.
Assay [3] has as its target T2, RAGE fragment coated in Fig. 4C (antigen not named on the sheet).
T2 construct: Placeholder: the panel cannot be tied to one of m19-m25
Nature of the assay: direct ELISA: purified E. coli RAGE construct protein coated at 1 ug/mL (construct not named for this panel), mAb titrated, donkey anti-mouse HRP, TMB. The procedure: as §1

A word on the EC50 (read off the curve): it is the concentration at which the effect is half-maximal.

B1: anti-human RAGE monoclonal antibody 4E5 (murine, hybridoma-derived) (antibody, V domains shown)
VH: QVQLQQSGAELVRPGTSVKVSCKASGYAFNNYLIEWIKQRPGQGLEWIGVINPGSGGTNHNEKFKVKATLTADKSSSTAYIQLSSLTSDDSAVYFCARSAGTARARFAYWGQGTLVTVSA
VL: DIQMTQSPSSLSASLGERVSLTCRASQDIGSSLNWLQQEPDGTIKRLIYATSSLDSGVPKRFSGSRSGSDYSLTISSLESEDFVDYYCLQYASFPFTFGSGTKLEIKR
notes: also called mAb4E5; ML37-4E5
B1: the binding result in assay [1] is “binds”.

B2: anti-human RAGE monoclonal antibody 11E6 (murine, hybridoma-derived) (antibody, V domains shown)
VH: QIQLVQSGPELKKPGETVKISCKASGYTFTNFGMNWVKQAPGKGLKWMGYINTNTGESIYSEEFKGRFAFSLETSASTAYLQINNLKNEDTATYFCARSRMVTAYGMDYWGQGTSVTVSS
VL: DIVMTQSQKFMSTSVGDRVSITCKASQNVGTAVAWYQQRPGQSPKLLIFSASNRYTGVPDRFTGSGSGTDFTLTLSNMQPEDLADYFCQQYSSYPLTFGVGTKLELKR
notes: also called mAb11E6; ML37-11E6
As for B2, the binding result in assay [2] is recorded as “binds”. The “EC50 (read off the curve)” value in assay [3] was roughly 0.03 nM.
